# Results from article PMC7094300 (Febs Letters, 2006).
# B1: SARS CoV main proteinase (enzyme)
# chain: SGFRKMAFPSGKVEGCMVQVTCGTTTLNGLWLDDTVYCPRHVICTAEDMLNPNYEDLLIRKSNHSFLVQAGNVQLRVIGHSMQNCLLRLKVDTSNPKTPKYKFVRIQPGQTFSVLACYNGSPSGVYQCAMRPNHTIKGSFLNGSCGSVGFNIDYDCVSFCYMHHMELPTGVHAGTDLEGKFYGPFVDRQTAQAAGTDTTITLNVLAWLYAAVINGDRWFLNRFTTTLNDFNLVAMKYNYEPLTQDHVDILGPLSAQTGIAVLDMCAALKELLQNGMNGRTILGSTILEDEFTPFDVVRQCSGVTFQ
# Biological target: the molecule itself
# Assay: small-angle X-ray scattering + cross-linking + other: enzyme kinetics
protein,measurement,value
B1,stoichiometry N,2
